Paper PMC7820495

B1: VCP^WT-sfGFP (Drosophila VCP tagged with sfGFP at the endogenous locus) [Drosophila] / wild-type VCP (endogenous, untagged, Drosophila) [Drosophila (endogenous in flies)] (parent)
chain 1: MADSKGEDLATAILKRKDRPNRLIVEEAQNDDNSVVSLSQAKMDELQLFRGDTVILKGKRRKETVCIVLSDDTCPDEKIRMNRVVRNNLCVHLSDVVSVQSCPDVKYGKRVRILPIDESTEGVTGNLFEIYLKPYFLEAYRPIHMGDNFIVRAAMRPIEFKVVLTDPEPYCIVAPETVIFCDGDPIKREEEEESLNAVGYDDIGGCRKQLAQIKEMVELPLRHPSLFKAIGVKPPRGILMYGPPGTGKTLIARAVANETGAFFFLINGPEIMSKLAGESESNLRKAFEEAEKNSPAIIFIDEIDAIAPKRDKTHGEVERRIVSQLLTLMDGMKKSSHLIVMAATNRPNSIDPALRRFGRFDREIDIGIPDATGRLEVLRIHTKNMKLHDDVDLEQIAAESHGHVGADLASLCSEAALQQIREKMDLIDLEDDKIDAEVLASLAVTMENFRYAMTKSSPSALRETVVEVPNTTWTDIGGLESVKKELQELVQYPVEHPDKFLKFGMQPSRGVLFYGPPGCGKTLLAKAIANECQANFISVKGPELLTMWFGESEANVRDIFDKARSAAPCVLFFDELDSIAKARGGNVGDAGGAADRVINQILTEMDGMGAKKNVFIIGATNRPDIIDPAILRPGRLDQLIYIPLPDDKSREAILKANLRKSPLAKEVDLTYIAKVTQGFSGADLTEICQRACKLAIRQAIEAEIRREKERAENQNSAMDMDEDDPVPEITSAHFEEAMKFARRSVSDNDIRKYEMFAQTLQQSRGFGQNFRFPGQTGNTSGSGNNLPVNSPGDNGDDDLYS
chain 2: B1 chain 1

Variants of: B1
Experiment: co-immunoprecipitation (IP: GFP, IB: VCP), band quantification
Settings: with wild-type VCP (endogenous, untagged, Drosophila) [Drosophila (endogenous in flies)]; heterozygous flies; n = 3 independent experiments; read off a plot

Variant | response
chain 1 P134L | 0.93
